Laboratory results published in patent US20240026407A1, “MODIFICATION OF SAPONINS” (GLAXOSMITHKLINE BIOLOGICALS SA, priority 2020, published 2024).

How the values were obtained:
Assay type in all cases: biochemical, Quillaja saponaria
[1] = Experiment 5-1: screening of additional glucosidases for deglycosylation with purified QS-18 (0.04 mg/ml) at pH 7.5 and 30 deg C; conditions: pH 7.5, 30 degrees C, 18 hours, LCMS/MS
Procedure: The 94 additional genes, together with positive control (DNA encoding SEQ ID No. 262) and negative control, were transformed, expressed, lysed and reacted in the same manner as described above for Experiment 4-1, except the reaction was incubated at 30 degrees C. for 18 hours.
Samples were analysed by LCMS/MS according to the procedure in Experiment 4-1.

[2] = Experiment 5-2: screening of additional glucosidases for deglycosylation with QS-18 in crude bark extract (80%) at pH 6 and 35 deg C; conditions: CBE 80%, pH 6, 35 deg C, 18 hours; UV HPLC
Method in brief: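 Clarified glucosidase lysate (prepared at pH 6) was incubated with pH 6-adjusted crude bark extract at 35 deg C with shaking for 18 hours. Reactions were quenched with MeCN containing 2% AcOH and hexanophenone, then analysed by UV HPLC.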

[3] = Experiment 5-3: screening of additional glucosidases for deglycosylation with QS-18 in treated bark extract (80%) at pH 6 and 35 deg C; conditions: TBE 80% (QS-21 approx. 4 g/L), pH 6, 35 deg C; UV HPLC
Procedure: Experiment 5-1 was repeated, replacing CBE with Treated Bark Extract (TBE) at pH 6. TBE was prepared from CBE by PVPP treatment and concentration, to provide TBE with a QS-21 concentration of approximately 4 g/L. TBE was adjusted to pH 6 by dropwise addition of 2M NaOH with stirring.

Row | Molecule | Experiment 5-1 % conv [1] [%] | Experiment 5-2 % conv [2] [%] | Experiment 5-3 % conv [3] [%]
1 | 817 (protein, listed as Pseudonocardia sp.) MAHVDEELLGTLIATLDLERKVRLLTGADFWSTPAEPAIGLRRMVLSDGPSGVRGESFDEREPSLSLPSSSALGATWDPAAARRYGSALGAEARRQHADAVLGPTINLHRTPYGGRHFEALSEDPLLTAELAAAYVEGLQAHGVAATPKHYVANDAETERFSVDNRVGDRALRELYLAAFEPVVTRAGAWAVMSAYNAVNGTTMSENPLLAEPLTGEWGFDGLVMSDWGGARSTEASARAEQHLVMPGPVSAWGARLVEAVRDGRVGEDVIDGKVRRLLRLAARVGALDGVPPQVTEPPPAEDGAAVARELAAAGSVLVRNTRADGAAELPWDHAVPGSVAVLGHNAALARTQGGGSATVRPAAVVSPLDGLRAALGADRVRYRLGAQVAEGVQPFDPASITNPVTGGSGLRAVFRDVGGAALRTEDRLSSSLIWMGAEIPEGTDHVEIALRWDAPAGAHRLGAAAVGHVVLVAGGTTVLDADGVLTGDEGPGAAIFEAPSVTAGVTTDGPVDLVLRFRPSGQEAGMPLVAVTVGEETVVDDPDAEIAAAAALAAGTDVAVVVVGTNDRIESEGFDRSTLALPGRQDDLVRAVAAANPRTVVVVNSGAPVLLPWRDEVAAILLGWFGGEQFGEAVADVLLGAAEPGGRLPTTWPGTGRERSVLSGVPSDGVLRYDEGVHAGHRNWLRHGETPAYPFGHGLGYTTWTLDGMSVGRWSADGIDVTVTLTNIGDRPGRQVVQAYLSRDRSDVERPARWLAGWAVVDAAPGTTTVTVPVSRRAFRHRTGTGWATEPGTWTLHLGFSVTDTPLAAEVTTT | 3.5 | <0.5 | <0.5
2 | 840 (protein, listed as Hungatella hathewayi) MNKKIKEILNSLTLEEKASLCSGVGLWQTRPLEDKGIPEIWMADGSNGVRIMKPVNQERKQDTSDFLKVTDLTQNSPTITNQYEAVCYPSGASLASTWDTELIEEMGEALGDECRYFKVNLLLAPGINIKRSPLGGRGYEYYSEDPYLTGKVAESFIKGVQKTGTGTSIKHFAANNAETLRINMSSDVDERALREIYLAPFEIGVKNAKPWTVMSSYNKVNGVQMAENRELLTDILRDEWGFNGVVVSDWGGVKDRIKALEAGNDLDMPENQRSNQSVVDAVRRGILSEAVLDQSVERILELVFKAKEQERFTDDMDFESHRNLSRKVAEESVVLLKNEKGLLPITKEKYKKVAVIGAFAREPRYQGGGCTLVNPIRISRPYEEMEKLAGKNIELTYAKGYELKDETSDELIHEAEEAAREADIAVIFGGLWVAYDREGFDRKHLEIDSSHIRLIEAVSRVQKRVVVVLSNGDAVVMSPWLDHVGAVVEQFLVGETVGEALARVLFGEVNPSGKLPVTFPKRLEDTSAYPYFPGECSHHVYGEGIFVGYRYFDKKKIEPLFPFGYGISYTTFQYSAIRADRSQMKDTDTVTVSVDVTNTGCVKGKEIVQIYVSDEKSRLKRPEKELKAFGKVELEPGETKTLTFTLGYRDFAYYDPEASDWVVEEGIFHIHAAANAGDIRQSIPVEVTEAKKKFRRLYLDSQHTAVFEHPMAKKMYLDFLVETGVIAADRVEAMAPLLKGNYMGIYNVVTSLLGGNVTKEEMQAVLDRINEVCKDNRPAE | 3.5 | <0.5 | <0.5
